B1: LMIV230-02 human monoclonal antibody (IgG1, kappa) (antibody, V domains shown)
VH: QVQLVQSGAEVKKPGSSVKVSCKASGGTFNSYGISWVRQAPGQGLEWVGGIIPSFGTADYAQKFQGRVTFTTDTSTSTAYMEVSSLRSEDTAVYYCAGSSWSSGTYYGRSAYWGQGTLVTVSS
VL: EIVMTQSPASLALSLGERATINCKSSQSVLYSSNNKNYLAWYQQKPGQPPKLLIYWASTRESGVPDRFSGSGSGTDFTLTISSLQAGDVAVYHCQQYYSTPYSFGQGTKLEIK
B2: LMIV230-01 human monoclonal antibody (IgG1, kappa) (antibody, V domains shown)
VH: QVQLVQSGAEVKKPGSSVKVSCKVSGGTFNTYAIIWVRQAPGQGLEWMGAIIPFQDRGQYAQKFQGRVTITADKSTSTAYMELSSLRSEDTAVYYCAKESGRAVADRWGQGTLVTVSS
VL: DIVMTQSPASLALSLGERATLYCRASHSISSWLAWYQQKPGKAPKLLIYKASTLESGVPSRFSGSGSGTEFTLTISSLQPDDFATYYCQQYKSYPWTFGQGTKLEIK

Target: ookinete protein Pfs25 (Plasmodium falciparum NF54 (3D7 entry …, UniProt P13829))
Sequence (P13829 17-196): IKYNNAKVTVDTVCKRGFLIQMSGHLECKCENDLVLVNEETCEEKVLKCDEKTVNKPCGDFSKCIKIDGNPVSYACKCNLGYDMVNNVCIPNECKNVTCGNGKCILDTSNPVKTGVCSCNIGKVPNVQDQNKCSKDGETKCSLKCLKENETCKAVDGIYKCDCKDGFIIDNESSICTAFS
Assay: ELISA; Pfs25 ELISA; series of mAb concentrations, OD 450 nm

Row | Binder | binding result
1 | B1 | no binding
2 | B2 | no binding

— publication PMC7979743 (Nature Communications, 2021)
